Laboratory results published in patent US20240190986A1 (ZHEJIANG NANOMAB TECHNOLOGY CENTER, published 2024).
Changes are numbered by the printed parent chain.

B1: M2339-z11-12 (antibody, IgG4, V domains shown)
VH: EVQLGASGGGLVQPGGSLRLSCALSGFTLRELDEFAIGWFRQAPGKEREGVSCISGTGGITHYADSVKGRFTISRDIAKTTVYLQMNSLNSEDTAVYYCAADERCTDRLIRPPTYWGQGTQVTVSS
notes: Humanized variant of M2339
B2: M2339-z11-17 (antibody, IgG4, V domains shown)
VH: B1 VH with V2L, I77N, A78S, T80N, V82L, N90R, S91A
notes: Humanized variant of M2339
B3: M2339-z11-16 (antibody, IgG4, V domains shown)
VH: B1 VH with E1Q, V2L, N90R, S91A
notes: Humanized variant of M2339
B4: M2339-z11-14 (antibody, IgG4, V domains shown)
VH: B1 VH with E1Q, V2L, T80N
notes: Humanized variant of M2339
B5: M2339-z11-15 (antibody, IgG4, V domains shown)
VH: B1 VH with E1Q, V2L, V82L
notes: Humanized variant of M2339
B6: M2339-z11-13 (antibody, IgG4, V domains shown)
VH: B1 VH with E1Q, V2L, I77N, A78S
notes: Humanized variant of M2339
B7: M129 (VHH)
VHH: QVQLVESGGGSAQAGGSLILSCVASANLFTIDALGWYRQAPGPKRELVAAISSGGNKYYADAVKGRFTISRDTLTKTMWLQMNNLKPEDTAMYYCAAEDYGLGQRSWGMGTQVTVSS
notes: Nanoantibody in TG1 supernatant in the screening ELISA; also called clone M129
B8: M005 (VHH)
VHH: EVQLVESGGGWVQSGGSLRLACAASGSSFGLNVVGWYRQAPDKQRELVASIGNGGRTTDYADSVKGRFTISSDNAKNTVFLQMNDLKPEDTAVYYCHLRASVTKGYWGQGTQVTVSS
notes: Nanoantibody in TG1 supernatant in the screening ELISA; also called clone M005
B9: M126 (VHH)
VHH: B8 VHH with S27D, Q39L, V93M, A100V, K104E
notes: Nanoantibody in TG1 supernatant in the screening ELISA; also called clone M126
B10: M032 (VHH)
VHH: EVQLVESGGGSVQAGGSLKISCAASGSVIDIGAMGWYRHITEKERKLVATINAGGNTYYADSVKGRFTISRDNAKYTVYLQMNSLKPEDTAMYYCAAEDINYTGTEAYYWGQGTQVTVSS
notes: Nanoantibody in TG1 supernatant in the screening ELISA; also called clone M032
B11: M004 (VHH)
VHH: EVQLVESGGGLVQAGGSLRLSCAASESISSIAYMGWYRRISEKERNLVATISSTGSTYYADSVKGRFTISRDNAKNTMYLQMNRLKPEDTAIYYCAASNKAYNDYDPDWGQGTQVTVSS
notes: Nanoantibody in TG1 supernatant in the screening ELISA; also called clone M004
B12: M012 (VHH)
VHH: QVQLVESGGDLVQTGGSLRLSCVVSGSTFAINAMGWYRQAPGKERELVAAISSGGDSTHYADDVKGRFTISRDNAENTMYLQMKSLKPEDTAVYVCNARGCRDFHNPQALCVLRDYWGQGTQVTVSS
notes: Nanoantibody in TG1 supernatant in the screening ELISA; also called clone M012
B13: M044 (VHH)
VHH: QVQVVESGGGFVQAGGSLRLSCAASTPIISIAYMGWYRQISEKERQLVATINSGGKTYYADSVKGRFTISRDNAKNTLYLQMNMLKPEDTGMYYCAASNKDYNDYDPDWGQGTQVTVSS
notes: Nanoantibody in TG1 supernatant in the screening ELISA; also called clone M044; M044 antibody
B14: M001 (VHH)
VHH: EVQLVESGGGLVQAGGSLRLSCAASGSIFNINAMGWYRQAPGKEWERELVATISSSNSDNTYYKDSVKGRFTISTNTAKNTWYLQMNSLKPEDTAMYYCAAENYDRKDRYWGQGTQVTVSS
notes: Nanoantibody in TG1 supernatant in the screening ELISA; also called clone M001
B15: M003 (VHH)
VHH: B14 VHH with E1Q, A23T, S27N, N30S, A40P, S56T, D65E, Y104F, G112A
notes: Nanoantibody in TG1 supernatant in the screening ELISA; also called clone M003
B16: M156 (VHH)
VHH: QVQLVESGGGLVQAGGSLRLSCAVSGISFEYYAIGWFRQAPGKEREAVSCTTSGTTSGGGVTDYADSLKGRFTISRDVAKNTVYLQMNNLTPEDTAVYYCAADIHCRGYVLFVPSDFGNWGQGTQVTVSS
notes: Nanoantibody in TG1 supernatant in the screening ELISA; also called clone M156
B17: M143 (VHH)
VHH: EVQLVESGGGLVQAGGSLRLSCSASEKTFSIKYMGYYRQGPGIERKLVATIDTDGKTWYADSVKGRFTISRENGENEIGLEMNRLKPEDTAMYYCAGETGTYPKPEYWGQGTQVTVSS
notes: Nanoantibody in TG1 supernatant in the screening ELISA; also called clone M143
B18: M169 (VHH)
VHH: EVQLVESGGGTVQPGESLRLSCEASGAVSTINAMGWYRQTPEMRKLVATMGSGGNTYYADSVKGRFTISRDFAGNTVDLQMNDLKPEDTGVYFCAADKFGADIKEVAYWGKGTLVTVSS
notes: Nanoantibody in TG1 supernatant in the screening ELISA; also called clone M169
B19: M132 (VHH)
VHH: QVQLVESGGGLVQAGGSLSLSCVASGDAFSFDAMGWYRQFSGKVNERQLVVATSRDGRTAYGERVKGRFTASRDNSKNTLSLVMNNLQVEDTAIYYCAAGDDPKDYYWGQGTQVTVSS
notes: Nanoantibody in TG1 supernatant in the screening ELISA; also called clone M132
B20: M137 (VHH)
VHH: QVQLVESGGGLVQAGGSLSLSCAASGSLSSINAMGWYRQLPEMRQLVATMGSDGKTYYADSVKGRFTISRDYAKYTVSLQMNNLRPEDTAIYYCAADRFGAPIHDVDYWGKGTLVTVSV
notes: Nanoantibody in TG1 supernatant in the screening ELISA; also called clone M137
B21: M197 (VHH)
VHH: EVQLVESGGGLVQAGGSLRLSCAASGSHFGLNVVGWYRQAPGKQRELVASIGNSGRTTDYADSVKGRFTISKDNAQNTIYLQMNNLKPEDTAMYRCHLRVSVERGYWGQGTQVTVSS
notes: Nanoantibody in TG1 supernatant in the screening ELISA; also called clone M197
B22: M210 (VHH)
VHH: QVQLVESGGGLVQPGGSLRLSCAASGITLDNYAIAWFRQAPGKKREGVSCISSNGNTYYQPSVKGRFTIARDNAKNTVYLHMNNLNPEDTAVYYCQVGQFSSSTTPVQAMSVMSLYADWGQGTQVTVSS
notes: Nanoantibody in TG1 supernatant in the screening ELISA; also called clone M210
B23: M224 (VHH)
VHH: QVQLVESGGGLVQPGGSLRLSCAASGFTFHYYAIGWFRQAPGKEREGVSCISSSGDSTWFSDSVKGRFTVSRDNAKNIVHLQMNNLKPEDTAVYYCAGTTRSGYVCYDAEPYDSWGQGTQVTVSS
notes: Nanoantibody in TG1 supernatant in the screening ELISA; also called clone M224
B24: M050 (VHH)
VHH: EVQLQESGGGLVQAGGSLRLSCAASGAVSSINAMGWYRQTPEKVRKLVATMGSGGNTYYADSVKGRFTISRDYAKNTVALQMNNLIPEDTAVYYCAADKFGADIHEVDYWGKGTLVTVSS
notes: Nanoantibody in TG1 supernatant in the screening ELISA; also called clone M050
B25: M182 (VHH)
VHH: QVQLVESGGGSVQAGGSLTLSCAASGAVSSINAMGWYRQTPEKVRQLVATMGSGGNTYYAASVKGRFTISRDYAKNTVALQMNHLLPEDTAVYYCAADRFGADIREVDYWGKGTQVTVSS
notes: Nanoantibody in TG1 supernatant in the screening ELISA; also called clone M182
B26: M010 (VHH)
VHH: QVQLVESGGGLVQAGGSLRLSCAASGSVSSINAMGWYRQGTGEVRKLVATMGSGGNTYYADSVKGRFFITRDYSKNTVSLQMNNLTPEDSATYYCAADRFGASIHEVDYWGKGTLVTVSS
notes: Nanoantibody in TG1 supernatant in the screening ELISA; also called clone M010
B27: M118 (VHH)
VHH: EVQLVESGGGLVQAGGSLTLSCAASEHTFTIDAMGYYRQIPGRRNERQLVAAAGRTGTTYYNDAVKDRFTIYRDTSKETIILQMNNLRPEDTTMYYCAVERYSDQSRFFGPGTQVTVSS
notes: Nanoantibody in TG1 supernatant in the screening ELISA; also called clone M118
B28: M191 (VHH)
VHH: QVQLVESGGGLVQAGGSLRLSCAASASMGSISNMGWYRQAPGKERGNERNLVATIGSDGRTYYADSVKGRFTISRDNVKNTMILQMNFLKPEDTAMYYCAVEDRQRPGTENYYWGQGTQVTVSS
notes: Nanoantibody in TG1 supernatant in the screening ELISA; also called clone M191
B29: M047 (VHH)
VHH: QVQLVETGGGSVQAGGSLRLSCAASGSIASIDAMGWYRQVPGKEWERELVATISSSNSDNKYYKDSVKGRFTISTNIAKNTWYLQMNNLKPEDTAMYYCAAEDYDTKDRFWGQGTQVTVSS
notes: Nanoantibody in TG1 supernatant in the screening ELISA; also called clone M047
B30: M344 (VHH)
VHH: QVQLVESGGGLVQSGGSLRLSCVASGSAFSFDAMGWYRQFSATRRERQLVVATSRDGRTYYADSVKGRFTATRDNSKNSLYLEMNSLKPEDTAIYYCAAGDDPKNYSWGQGTQVTVSS
notes: Nanoantibody in TG1 supernatant in the screening ELISA; also called clone M344
B31: M119 (VHH)
VHH: EVQLVESGGGLVQPGGSLRLSCVASGSDLSFDAMGWYRQFSATVRERQLVVATSRDGRIYYGDSVKGRFTASRDNLKNSVDLEMNNLKPEDTAIYYCAAGDDPKNYDWGPGTQVTVSS
notes: Nanoantibody in TG1 supernatant in the screening ELISA; also called clone M119

What follows are binders tested against T1, MSLN·His protein (human, UniProt Q13421 296-580, limits assumed) (assay: SPR (Biacore), antibody captured on protein A, MSLN·His as analyte).
T1 construct: Bought protein; also called human MSLN·His antigen; not shown: His tag
T1 sequence (Q13421 other isoform, or with tags, fused parts or gaps limits assumed): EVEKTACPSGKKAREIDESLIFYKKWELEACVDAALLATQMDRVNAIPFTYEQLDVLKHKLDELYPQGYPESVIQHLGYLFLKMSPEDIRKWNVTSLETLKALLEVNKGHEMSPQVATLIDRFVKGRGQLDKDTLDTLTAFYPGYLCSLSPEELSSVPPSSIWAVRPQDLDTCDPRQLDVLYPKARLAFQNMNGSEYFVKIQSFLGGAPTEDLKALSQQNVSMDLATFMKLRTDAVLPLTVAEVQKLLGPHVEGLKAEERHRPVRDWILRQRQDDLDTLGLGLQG
Description: Referring to the method of humanizing nanoantibodies (J. Biol. Chem. 2009; 284: 3273-3284), M2339 was humanized using the method of CDR region transplantation. In IgBLAST (http://www.ncbi.nlm.nih.gov/igblast/), germline with high homology with M2339 was selected as the template in the database. Biacore was used to detect the affinity of the antibody before and after humanization. The purified antibody was flowed through the sensor chip pre-fixed with protein A, and the antibody was captured by protein A. Then five different concentrations of MSLN·His protein were used as the mobile phase, and the association time and dissociation time were 30 min and 60 min, respectively. The binding rate (ka), dissociation rate (kd), and equilibrium constant (kd) were analyzed using Biacore Evaluation Software 2.0 (GE).

Binder | Kd [nM] | koff [s⁻¹] | kon [M⁻¹ s⁻¹]
B1 | 12.2 | 0.00102 | 83800
B2 | 3.98 | 0.000156 | 39300
B3 | 0.0961 | 6.52e-06 | 67800
B4 | 0.228 | 1.01e-05 | 44400
B5 | 0.16 | 1.14e-05 | 71000
B6 | 0.142 | 9.29e-06 | 65200

These binders were tested against T2, MSLN.Fc protein (human, UniProt Q13421 296-598, limits assumed) (assay: ELISA, antigen coated, TG1 supernatant).
T2 construct: also called MSLN·hFc; MSLN protein; not shown: human IgG Fc fragment
T2 sequence (Q13421 other isoform, or with tags, fused parts or gaps limits assumed): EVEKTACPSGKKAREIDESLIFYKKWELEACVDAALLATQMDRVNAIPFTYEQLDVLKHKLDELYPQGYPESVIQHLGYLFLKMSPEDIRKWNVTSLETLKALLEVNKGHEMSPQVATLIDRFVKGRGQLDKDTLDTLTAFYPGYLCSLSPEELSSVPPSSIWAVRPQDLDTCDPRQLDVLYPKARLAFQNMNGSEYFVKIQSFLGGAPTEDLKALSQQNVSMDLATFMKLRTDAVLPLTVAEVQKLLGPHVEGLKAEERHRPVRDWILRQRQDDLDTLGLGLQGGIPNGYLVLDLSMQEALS

Binder | ELISA (OD450)
B7 | 2.4
B8 | 1.18
B9 | 1.95
B10 | 1.41
B11 | 1.1
B12 | 0.938
B13 | 2.2
B14 | 1.72
B15 | 2.38
B16 | 1.67
B17 | 1.62
B18 | 1.36
B19 | 1.34
B20 | 1.27
B21 | 1.21
B22 | 1.95
B23 | 1.45
B24 | 2.72
B25 | 1.03
B26 | 2.75
B27 | 2.05
B28 | 1.69
B29 | 1.98
B30 | 2.22
B31 | 2.49

These binders were tested against T3, MD50 protein (assay: ELISA, antigen coated, TG1 supernatant).
T3 construct: range 487-580; also called proximal membrane fragment of mesothelin
T3 sequence (Q13421 495-588): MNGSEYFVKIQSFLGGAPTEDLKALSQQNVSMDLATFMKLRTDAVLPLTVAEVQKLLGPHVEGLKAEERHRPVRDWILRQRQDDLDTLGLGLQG

Binder | ELISA (OD450)
B7 | 1.66
B8 | 1.03
B9 | 0.926
B10 | 1.72
B11 | 1.81
B12 | 2.05
B13 | 2.04
B14 | 1.35
B15 | 1.73
B16 | 1.53
B17 | 1.3
B18 | 1.19
B19 | 1.17
B20 | 2.09
B21 | 1.69
B22 | 0.823
B23 | 1.78
B24 | 0.512
B25 | 1.14
B26 | 2.09
B27 | 2.06
B28 | 1.71
B29 | 2.07
B30 | 2.08
B31 | 1.46
